Stoichiometry N data for one substance are collected here from paper PMC6309364.

The target of the experiment is _(SUMO)BMC-HRmm (SUMOylated BMC-H protein of Mycobacterium smegmatis) (Mycobacterium smegmatis). As to the kind of experiment: SEC.

Take “_(SUMO)BMC-HRmm (SUMOylated BMC-H protein of Mycobacterium smegmatis) (natural protein)”: the stoichiometry N was 6.
